Test results reported in paper doi:10.1101/2021.07.08.451649 (bioRxiv, 2021).

Target: Recombinant SARS-CoV-2 spike N-terminal domain (NTD) (SARS-CoV-2, ancestral (Wuhan-Hu-1), UniProt P0DTC2)
Assay: BLI

B1: PVI.V6-14 monoclonal antibody (IgG) (antibody, V domains shown)
VH: QVQLQESGPGLVKPSETLSLTCTVSGGSISSSSYYWGWIRQPPGKGLEWIGSIYYSGSTYYNPSLKSRVTISVDTSKNQFSLKLSSVTAADTAVYYCARCRPEYYFGSGSYLDFDY
VL: DIQMTQSPSSVSASVGDRVTITCRASQGISSWLAWYQQKPGKAPKLLIYAASSLQSGVPSRFSGSGSGTDFTLTISSLQPEDFATYYCQQANSFPLTFGGGTKVEIK
binding result: binds
